Blank lines part the entries; values can stand above or below the molecule they belong to.
Assays:
[1] = molecular target: Halo-PAFR Cys mutant 7.38; experiment: cysteine cross-linking with CuP, SDS-PAGE blot quantification of cell surface Halo-PAFR; conditions: parent: est. 5, read off a plot
[2] = molecular target: Halo-PAFR Cys mutant 1.41; experiment: as above; conditions: parent: est. 5, read off a plot
[3] = molecular target: Halo-PAFR Cys mutant 4.51; experiment: as above; conditions: parent: est. 5, read off a plot
[4] = molecular target: Halo-PAFR Cys mutant 3.23; experiment: as above; conditions: parent: est. 5, read off a plot
[5] = molecular target: Halo-PAFR Cys mutant 7.35; experiment: as above; conditions: parent: est. 5, read off a plot
[6] = molecular target: Halo-PAFR Cys mutant 1.38; experiment: as above; conditions: parent: est. 5, read off a plot
[7] = molecular target: Halo-PAFR Cys mutant 4.57; experiment: as above; conditions: parent: est. 5, read off a plot
[8] = molecular target: Halo-PAFR Cys mutant 4.60; experiment: as above; conditions: parent: est. 5, read off a plot
[9] = molecular target: Halo-PAFR Cys mutant 1.33; experiment: as above; conditions: parent: est. 5, read off a plot
[10] = molecular target: Halo-PAFR Cys mutant 3.27; experiment: as above; conditions: parent: est. 5, read off a plot
[11] = molecular target: Halo-PAFR Cys mutant 1.39; experiment: as above; conditions: parent: est. 5, read off a plot
[12] = molecular target: Halo-PAFR Cys mutant 4.53; experiment: as above; conditions: parent: est. 5, read off a plot
[13] = molecular target: Halo-PAFR Cys mutant 4.54; experiment: as above; conditions: parent: est. 5, read off a plot
[14] = molecular target: Halo-PAFR Cys mutant 6.51; experiment: as above; conditions: parent: est. 5, read off a plot
[15] = molecular target: Halo-PAFR Cys mutant 2.59; experiment: as above; conditions: parent: est. 5, read off a plot
[16] = molecular target: Halo-PAFR Cys mutant 6.56; experiment: as above; conditions: parent: est. 5, read off a plot
[17] = molecular target: Halo-PAFR Cys mutant 4.48; experiment: as above; conditions: parent: est. 5, read off a plot
[18] = molecular target: Halo-PAFR Cys mutant 4.61; experiment: as above; conditions: parent: est. 5, read off a plot
[19] = molecular target: Halo-PAFR Cys mutant 6.49; experiment: as above; conditions: parent: est. 5, read off a plot
[20] = molecular target: Halo-PAFR Cys mutant 4.56; experiment: as above; conditions: parent: est. 5, read off a plot
[21] = molecular target: Halo-PAFR Cys mutant 4.58; experiment: as above; conditions: parent: est. 5, read off a plot
[22] = molecular target: Halo-PAFR Cys mutant 7.37; experiment: as above; conditions: parent: est. 5, read off a plot
[23] = molecular target: Halo-PAFR Cys mutant 1.35; experiment: as above; conditions: parent: est. 5, read off a plot
[24] = molecular target: Halo-PAFR Cys mutant 6.54; experiment: as above; conditions: parent: est. 5, read off a plot
[25] = molecular target: Halo-PAFR Cys mutant 7.33; experiment: as above; conditions: parent: est. 5, read off a plot
[26] = molecular target: Halo-PAFR Cys mutant 4.64; experiment: as above; conditions: parent: est. 5, read off a plot
[27] = molecular target: Halo-PAFR Cys mutant 4.47; experiment: as above; conditions: parent: est. 5, read off a plot
[28] = molecular target: Halo-PAFR Cys mutant 2.63; experiment: as above; conditions: parent: est. 5, read off a plot
[29] = molecular target: Halo-PAFR Cys mutant 6.53; experiment: as above; conditions: parent: est. 5, read off a plot
[30] = molecular target: Halo-PAFR Y151C^4.59-I154C^4.62 (human, UniProt P25105 1-342, Y151C^4.59 | I154C^4.62, Halo-tag covalently labelled with HaloTag Alexa Fluor 660 (blots) or HaloTag Alexa Fluor 488 (imaging)); experiment: cell-based or functional assay
Halo-PAFR Y151C^4.59-I154C^4.62, sequence (P25105 whole entry Y151C/I154C): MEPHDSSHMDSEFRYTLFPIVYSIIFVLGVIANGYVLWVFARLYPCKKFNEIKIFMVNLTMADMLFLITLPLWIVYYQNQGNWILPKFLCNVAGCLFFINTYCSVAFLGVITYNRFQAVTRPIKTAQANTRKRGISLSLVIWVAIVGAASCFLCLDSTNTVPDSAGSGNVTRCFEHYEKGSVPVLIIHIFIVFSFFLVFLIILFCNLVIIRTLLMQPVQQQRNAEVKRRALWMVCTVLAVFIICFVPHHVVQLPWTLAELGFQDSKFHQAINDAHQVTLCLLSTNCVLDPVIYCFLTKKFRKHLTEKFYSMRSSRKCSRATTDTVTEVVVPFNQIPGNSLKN

[31] = molecular target: Halo-PAFR E178K (natural genetic variant) (human, UniProt P25105 1-342, E178K, Halo-tag covalently labelled with HaloTag Alexa Fluor 488); experiment: cell-based or functional assay
Halo-PAFR E178K (natural genetic variant), sequence (P25105 whole entry E178K): as the sequence (P25105 whole entry Y151C/I154C) above, with C151Y, C154I, E178K counted along it

Molecule: Halo-tagged wild-type human platelet-activating factor receptor (from UniProt P25105) 4.51
other: change of dimer cross-linking [3]: 19%

Molecule: Halo-tagged wild-type human platelet-activating factor receptor (from UniProt P25105) 4.60
other: change of dimer cross-linking [8]: 20%

Molecule: Halo-tagged wild-type human platelet-activating factor receptor (from UniProt P25105) 4.53
other: change of dimer cross-linking [12]: 20%

Molecule: Halo-tagged wild-type human platelet-activating factor receptor (from UniProt P25105) 6.51
other: change of dimer cross-linking [14]: 6%

Molecule: Halo-tagged wild-type human platelet-activating factor receptor (from UniProt P25105) 4.48
other: change of dimer cross-linking [17]: 14%

Molecule: Halo-tagged wild-type human platelet-activating factor receptor (from UniProt P25105) 4.61
other: change of dimer cross-linking [18]: 18%

Molecule: Halo-tagged wild-type human platelet-activating factor receptor (from UniProt P25105) 4.56
other: change of dimer cross-linking [20]: 22%

Molecule: Halo-tagged wild-type human platelet-activating factor receptor (from UniProt P25105) 7.37
other: change of dimer cross-linking [22]: 19%

Molecule: Halo-tagged wild-type human platelet-activating factor receptor (from UniProt P25105) 1.35
other: change of dimer cross-linking [23]: 18%

Molecule: Halo-tagged wild-type human platelet-activating factor receptor (from UniProt P25105) 7.33
other: change of dimer cross-linking [25]: 15%

Molecule: Halo-tagged wild-type human platelet-activating factor receptor (from UniProt P25105) 4.47
other: change of dimer cross-linking [27]: 13%

Molecule: Halo-tagged wild-type human platelet-activating factor receptor (from UniProt P25105) 2.63
other: change of dimer cross-linking [28]: 14%

Molecule: Halo-tagged wild-type human platelet-activating factor receptor (from UniProt P25105) 6.53
other: change of dimer cross-linking [29]: 10%

B1: Human β-arrestin1 tagged with Rluc (natural protein, UniProt P49407 1-418, looked up)
chain: MGDKGTRVFKKASPNGKLTVYLGKRDFVDHIDLVDPVDGVVLVDPEYLKERRVYVTLTCAFRYGREDLDVLGLTFRKDLFVANVQSFPPAPEDKKPLTRLQERLIKKLGEHAYPFTFEIPPNLPCSVTLQPGPEDTGKACGVDYEVKAFCAENLEEKIHKRNSVRLVIRKVQYAPERPGPQPTAETTRQFLMSDKPLHLEASLDKEIYYHGEPISVNVHVTNNTNKTVKKIKISVRQYADICLFNTAQYKCPVAMEEADDTVAPSSTFCKVYTLTPFLANNREKRGLALDGKLKHEDTNLASSTLLREGANREILGIIVSYKVKVKLVVSRGGLLGDLASSDVAVELPFTLMHPKPKEEPPHREVPENETPVDTNLIELDTNDDDIVFEDFARQRLKGMKDDKEEEEDGTGSPQLNNR
maximal efficacy of βarr1 recruitment, normalized to WT [30]: ~60 % of WT
maximal efficacy of βarr1 recruitment, normalized to WT [31]: ~83 % of WT

Results, then the molecule that gave them:

other: change of dimer cross-linking [1]: 15%
Molecule: Halo-tagged wild-type human platelet-activating factor receptor (from UniProt P25105) 7.38

other: change of dimer cross-linking [2]: 20%
Molecule: Halo-tagged wild-type human platelet-activating factor receptor (from UniProt P25105) 1.41

other: change of dimer cross-linking [4]: 8%
Molecule: Halo-tagged wild-type human platelet-activating factor receptor (from UniProt P25105) 3.23

other: change of dimer cross-linking [5]: 16%
Molecule: Halo-tagged wild-type human platelet-activating factor receptor (from UniProt P25105) 7.35

other: change of dimer cross-linking [6]: 16%
Molecule: Halo-tagged wild-type human platelet-activating factor receptor (from UniProt P25105) 1.38

other: change of dimer cross-linking [7]: 15%
Molecule: Halo-tagged wild-type human platelet-activating factor receptor (from UniProt P25105) 4.57

other: change of dimer cross-linking [9]: 14%
Molecule: Halo-tagged wild-type human platelet-activating factor receptor (from UniProt P25105) 1.33

other: change of dimer cross-linking [10]: 9%
Molecule: Halo-tagged wild-type human platelet-activating factor receptor (from UniProt P25105) 3.27

other: change of dimer cross-linking [11]: 13%
Molecule: Halo-tagged wild-type human platelet-activating factor receptor (from UniProt P25105) 1.39

other: change of dimer cross-linking [13]: 20%
Molecule: Halo-tagged wild-type human platelet-activating factor receptor (from UniProt P25105) 4.54

other: change of dimer cross-linking [15]: 21%
Molecule: Halo-tagged wild-type human platelet-activating factor receptor (from UniProt P25105) 2.59

other: change of dimer cross-linking [16]: 9%
Molecule: Halo-tagged wild-type human platelet-activating factor receptor (from UniProt P25105) 6.56

other: change of dimer cross-linking [19]: 15%
Molecule: Halo-tagged wild-type human platelet-activating factor receptor (from UniProt P25105) 6.49

other: change of dimer cross-linking [21]: 22%
Molecule: Halo-tagged wild-type human platelet-activating factor receptor (from UniProt P25105) 4.58

other: change of dimer cross-linking [24]: 8%
Molecule: Halo-tagged wild-type human platelet-activating factor receptor (from UniProt P25105) 6.54

other: change of dimer cross-linking [26]: 11%
Molecule: Halo-tagged wild-type human platelet-activating factor receptor (from UniProt P25105) 4.64

Reference: publication PMC9606269, “Biased signaling due to oligomerization of the G protein-coupled platelet-activating factor receptor” (Nature Communications, 2022)
